Source: publication PMC12225687

How the values were obtained:
Experiment in all cases: flow cytometry on cells; PE-labelled pMHC multimer (HLA-A*02:01 with the … peptide) stained on Jurkat J1601 cells (human CD8α/β, TCRα/β CRISPR-KO) electroporated with TCR RNA, after overnight incubation; read-out % multimer+CD8+ cells, averages of two independent replicates
1G4-c53c50 TCR (human) = biological target: 1G4-c53c50 TCR (human)
1G4-c50 TCR (human) = biological target: 1G4-c50 TCR (human)
1G4 TCR (human) = biological target: 1G4 TCR (human)

## HLA-A*02:01 with the NY-ESO-1 157-165 peptide …, PE-labelled multimer (from UniProt P61769 21-119) (peptide-MHC)
1G4-c53c50 TCR (human)
  % of multimer+CD8+ Jurkat cells: 99.1%
1G4-c50 TCR (human)
  % of multimer+CD8+ Jurkat cells: 99.6%
1G4 TCR (human)
  % of multimer+CD8+ Jurkat cells: 90.9%
